This note sets out measurements from US20260167721A1 (ABLEXIS, published 2026).

By Kd is commonly meant the free concentration of one partner at which half of the binding sites on the other are occupied at equilibrium, for simple one-to-one binding. A word on the koff: it is a measure of how fast the partners let go of each other. The term kon denotes the rate constant with which the complex forms.

The target in assay [1] is T1, recombinant human CD3 epsilon/gamma heterodimer (human, UniProt P07766 23-126; P09693 23-116).
T1 construct: Recombinant protein in solution (200-50 nM) in the Octet assay; also called hCD3 E/G
T1 sequence (P07766 23-126, chain 1 of 2): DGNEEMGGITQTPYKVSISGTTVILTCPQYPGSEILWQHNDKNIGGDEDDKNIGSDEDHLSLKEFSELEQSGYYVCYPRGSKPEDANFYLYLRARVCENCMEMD
T1 sequence (P09693 23-116, chain 2 of 2): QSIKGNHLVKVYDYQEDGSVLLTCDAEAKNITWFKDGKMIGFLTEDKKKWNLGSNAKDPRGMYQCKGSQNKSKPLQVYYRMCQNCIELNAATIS
Nature of the assay: Octet BLI, mAb on FAB2G sensor, hCD3 E/G 200-50 nM; R^2 0.99.

For assay [2], the target named is T2, recombinant human CD3 epsilon/delta heterodimer (human, UniProt P07766 23-126; P04234 22-105).
T2 construct: Recombinant protein in solution (200-50 nM) in the Octet assay; also called hCD3 E/D; human CD3E/D
T2 sequence (P07766 23-126, stated change not applied, chain 1 of 2): as the sequence (P07766 23-126, chain 1 of 2) above
T2 sequence (P04234 22-105, stated change not applied, chain 2 of 2): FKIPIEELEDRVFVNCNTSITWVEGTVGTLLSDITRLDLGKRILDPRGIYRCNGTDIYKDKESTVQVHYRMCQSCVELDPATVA
Nature of the assay: Octet BLI, mAb on FAB2G sensor, hCD3 E/D 200-50 nM; R^2 0.99.

B1: ABL-CD3-5 (antibody, V domains shown)
VH: EVQLVESGGGLVQPGGSLRLSCAASGFTFSRYSMNWVRQAPGKGLEWVSYISSSSSSIYYADSVKGRFTISRDNAKNSLYLQMNSLRDEDTAVYYCARDRRATLDYWGQGTLVTVSS
VL: NFMLTQPHSVSESPGKTVTISCTRSSGSIASNYVQWYQQRPGSSPTTVIYEDNQRPSGVPDRFSGSIDSSSNSASLTISGLKTEDEADYYCQSYDSSNHVFGGGTKLTVL
notes: Chimeric hybridoma mAb: human V, CH1, upper hinge; mouse middle hinge, CH2, CH3
On to B1, for which, in assay [1], the Kd was 106 nM, the Response was 0.27, the koff turned out to be 0.0449 s⁻¹ and the kon stood at 423000 M⁻¹ s⁻¹. Further, in assay [2], the Kd is 88.1 nM, the Response was determined as 0.36, the koff was 0.0321 s⁻¹ and the kon stood at 365000 M⁻¹ s⁻¹.

B2: ABL-CD3-48 (antibody, V domains shown)
VH: EVQLVESGGGLVKPGGSLRLSCAASGFTFSSYTMNWVRQAPGKGLEWVSSISGSGSYIYYADSVKGRFTISRDNAKNSLYLQMNSLRAEDTAVYYCAREPPTLGMDYWGQGTLVTVSS
VL: NFMLTQPHSVSESPGKTVTISCTRSSGSIASNYVQWYQQRPGSSPTTVIYEDNQRPSGVPDRFSGSIDSSSNSASLTISGLKTEDEADYYCQSFDSSNRVFGGGTKLTVL
notes: as for B1
Take B2: in assay [1], the dissociation constant Kd came out at 17.9 nM, the Response is 1.03, the koff is 0.00179 s⁻¹ and the kon came out at 100000 M⁻¹ s⁻¹. Moreover, in assay [2], the Kd was 11.5 nM, the Response came to 1.17, the koff came to 0.00114 s⁻¹ and the kon is 99300 M⁻¹ s⁻¹.

B3: ABL-CD3-54 (antibody, V domains shown)
VH: EVQLVESGGGLVKPGGSLRLSCAASGFTFSSYSMNWVRQAPGKGLEWVSSISRSSRYIFYADSVRGRFTISRDNAKNSLYLQMNSLRAEDTAVYYCAREKRELLFDYWGQGTLVTVSS
VL: NSMLTQPHSVSESPGKTVTISCTRSSGSIASYYVQWYQQRPGSSPTTVIYEDNQRPSGVPDRFSGSIDSSSNSASLTISGLKTEDEADYYCQSFDSSNRVFGGGTKLTVL
notes: as for B1
With B3, in assay [1], the Kd came out at 19.3 nM, the Response is 0.87, the koff was 0.00258 s⁻¹ and the association rate constant (kon) stood at 134000 M⁻¹ s⁻¹. In addition, in assay [2], the Kd is 17.6 nM, the Response came to 0.87, the koff came to 0.00267 s⁻¹ and the on-rate constant (kon) was 152000 M⁻¹ s⁻¹.

B4: ABL-CD3-28 (antibody, V domains shown)
VH: QVQLQQSGPGLVKPSQTLSLTCAISGDSVSSNSVAWNWIRQSPSRGLEWLGRTYYRSKWYNECAGSVKSRITINPDTSKNQFSLQLNSVTPEDTAIYYCARERKWELFLDYWGQGTLVTVSS
VL: NFMLTQPHSVSESPGKTVTISCTRSSGSIASNYVQWYQQRPGSSPTTVIYEDNQRPSGVPDRFSGSIDSSSNSASLTISGLKTEDEADYYCQSFDSSNVVFGGGTKLTVL
notes: as for B1
Regarding B4, in assay [1], the Kd stood at 5.6 nM, the Response was 0.77, the koff is 0.000798 s⁻¹ and the kon was determined as 143000 M⁻¹ s⁻¹. Besides, in assay [2], the Kd came to 7.88 nM, the Response was 0.77, the koff is 0.00133 s⁻¹ and the kon stood at 168000 M⁻¹ s⁻¹.

B5: ABL-CD3-20 (antibody, V domains shown)
VH: EVQLVESGGGLVKPGGSLRLSCAASGLTFSTYSMNWVRQAPGKGLEWVSSISSSGSYVYYADSVKGRFTMSRDNAKNSLYLQMNSLRAEDTAVYYCARERRELLFDYWGQGTLVTVSS
VL: NFMLTQPHSVSESPGKTVTISCTRSSGSIASNYVQWYQQRPGSSPTSVIYEDNQRPSGVPDRFSGSIDSSSNSASLTISGLKTEDEADYYCQSYDRSNRVFGGGTKLTVL
notes: as for B1
B5: in assay [1], the Kd is 18.3 nM, the Response worked out at 0.45, the koff is 0.00379 s⁻¹ and the kon is 207000 M⁻¹ s⁻¹. Also, in assay [2], the Kd came to 10.5 nM, the Response came out at 0.51, the koff was found to be 0.00229 s⁻¹ and the kon came out at 219000 M⁻¹ s⁻¹.

B6: ABL-CD3-53 (antibody, V domains shown)
VH: EVQLVESGGGLVKPGGSLRLSCAASGFTFSSYTMNWVRQAPGKGLEWVSSITTSSSYIYYADSVKGRFTISRDNAKNSLYLQMNSLRAEDTAVYYCARVTFDAFDIWGQGTMVTVSS
VL: NFMLTQPHSVSESPGKTVTISCTRSSGSIASNYVQWYQQRPGSSPTTVIYEDNQRPSGVPDRFSGSIDSSSNSASLTISGLKTEDEADYYCQSYDSSNRVFGGGTKLTVL
notes: as for B1
With B6, in assay [1], the Kd is 88.7 nM, the Response stood at 0.4, the koff turned out to be 0.00714 s⁻¹ and the kon came out at 80500 M⁻¹ s⁻¹. Besides, in assay [2], the Kd was determined as 146 nM, the Response came out at 0.24, the off-rate (koff) came out at 0.0199 s⁻¹ and the kon worked out at 136000 M⁻¹ s⁻¹.

B7: ABL-CD3-12 (antibody, V domains shown)
VH: EVQLVESGGGLVKPGGSLRLSCAASGFTFSSYTMNWVRQAPGKGLEWVSSISRSSSYKYYADSVKGRFTISRDNAKNSLYLQMNSLRAEDTAVYYCAREPPTLGMDYWGQGTLVIVSS
VL: NFMLTQPHSVSESPGKTVTISCTRSNGSITSNYVQWYQQRPGSSPTTVIYEDNQRPSGVPDRFSGSIDSSSNSASLTISGLKTEDEADYYCQSFDNSNRVFGEKTKLTVL
notes: as for B1
On to B7, for which, in assay [1], the Kd came to 10.5 nM, the Response is 1.14, the koff came to 0.00124 s⁻¹ and the kon is 118000 M⁻¹ s⁻¹. Also, in assay [2], the Kd amounted to 10.6 nM, the Response worked out at 1.21, the off-rate constant (koff) was determined as 0.00144 s⁻¹ and the kon is 136000 M⁻¹ s⁻¹.

B8: ABL-CD3-50 (antibody, V domains shown)
VH: QVQLQQSGPGLVKPSQTLSLTCAISGDSVSSNSVAWNWIRQSPSRGLEWLGRTYSRSKWYNDYAVSVKSRITINPDTSKNQFSLELNSVTPEDTAVYYCARERKWELFLDYWGQGTLVTVSS
VL: NFMLTQPHSVSESPGKTVTISCTRSSGSIASNYVQWYQQRPGISPTTVIYEDNQRPSGVPDRFSGSIDSSSNSASLTISGLKTEDEADYYCQSFDTSNVVFGGGTKLTVL
notes: as for B1
With B8, in assay [1], the Kd was 12.6 nM, the Response was found to be 0.6, the koff amounted to 0.00247 s⁻¹ and the kon was found to be 196000 M⁻¹ s⁻¹. In assay [2], the Kd was 21 nM, the Response amounted to 0.57, the koff is 0.0047 s⁻¹ and the kon was 224000 M⁻¹ s⁻¹.

B9: ABL-CD3-10 (antibody, V domains shown)
VH: QVQLQQSGPGLVKPSQTLSLTCAISGDSVSCNSVAWNWIRQSPSRGLEWLGRTYYRSKWHNEYAVSVKSRINIKPDTSKNQVSLQLKSVTPEDTAVYYCARERKWELFLDYWGQGTLVTVSS
VL: NFMLTQPHSVSESPGKTVTISCTRSSGSIASNYVQWYQQRPGSSPTTMIYEDNQRPSGVPDRFSGSIDSSSNSASLTISGLKTEDEADYYCQSLDSSSVVFGGGTKLTVL
notes: as for B1
For the molecule B9, in assay [1], the Kd was determined as 2.41 nM, the Response turned out to be 0.46, the koff was found to be 0.00039 s⁻¹ and the kon came out at 162000 M⁻¹ s⁻¹. Besides, in assay [2], the Kd worked out at 2.47 nM, the Response is 0.52, the koff was found to be 0.00046 s⁻¹ and the kon stood at 186000 M⁻¹ s⁻¹.

B10: ABL-CD3-7 (antibody, V domains shown)
VH: EVQLVESGGGLVKPGGSLRLSCAASGFTFSRYSMNWVRQAPGKGLKWVSSISSSGSYKYYADSVKGRFTISRDNAKNSLYLQMNSLRAEDTAVYYCAREPPTLGMDYWGQGTLVTVSS
VL: NFMLTQPHSVSESPGKTVTISCTRSSGSIASNYVQWYQQRPGSSPTTVIYEDNQRPSGVPDRFSGSIDSSSNSASLTISGLKTEDEADYYCQSFDNSNRVFGGGTKLTVL
notes: as for B1
Take B10: in assay [1], the Kd stood at 8.42 nM, the Response was determined as 0.81, the koff was determined as 0.00142 s⁻¹ and the kon is 169000 M⁻¹ s⁻¹. Besides, in assay [2], the Kd came to 4.14 nM, the Response is 0.86, the koff was found to be 0.000786 s⁻¹ and the kon worked out at 190000 M⁻¹ s⁻¹.

B11: ABL-CD3-47 (antibody, V domains shown)
VH: EVQLVESGGGLVQPGGSLRLSCAASGFTFSRYSMNWVRQAPGKGLEWVSYISRSSTTIYYADSVKGRFTISRDNAKNSLYLQMNSLRDEDAAVYYCARERWELLYFDYWGQGTLVTVSS
VL: NFMLTQPHSVSESPGKTVTISCTRSSGSIASKYVQWYQQRPGSSPTTVIYEDNQRPSGVPDRFSGSIDSSSNSASLTISGLKTEDEADYYCQSYYSNNRVFGGGTKLTVL
notes: as for B1
B11: in assay [1], the Kd is 36.2 nM, the Response amounted to 0.43, the koff was determined as 0.00785 s⁻¹ and the kon amounted to 217000 M⁻¹ s⁻¹. Besides, in assay [2], the Kd was found to be 16.9 nM, the Response is 0.62, the koff amounted to 0.00291 s⁻¹ and the kon was 172000 M⁻¹ s⁻¹.

B12: ABL-CD3-24 (antibody, V domains shown)
VH: EVQLVESGGGLVKPGGSLRLSCVASGFTFSSYTMNWVRQAPGKGLEWVSSISRSGSYKYNADSVKGRFTISRDNAKNSLYLQMNSLRVEDTAVYYCAREPPTLGMDYWGQGTLVTVSS
VL: NFMLTQPHSVSESPGKTVTISCTRSSGSIASNYVQWYQQRPGSSPTTVIYEDNQRPSGVPDRFSGSIDSSSNSASLTISGLKTEDEADYYCQSFYSSNRVFGGGTELTVL
notes: as for B1
Consider B12, for which, in assay [1], the Kd amounted to 8.48 nM, the Response is 0.89, the koff was 0.00134 s⁻¹ and the kon worked out at 158000 M⁻¹ s⁻¹. Moreover, in assay [2], the Kd stood at 5.78 nM, the Response is 0.93, the koff came to 0.00101 s⁻¹ and the kon was determined as 175000 M⁻¹ s⁻¹.

B13: ABL-CD3-26 (antibody, V domains shown)
VH: EVHLVESGGGLVKPGGSLRLSCAASGFTFSSYSMNWVRQAPGKGLEWVSSISSSSTYIYYADSVKGRFTISRDNAKNSLYLQMNSLRAEDTAVYYCAREPRTLGMDYWGQGILVTVSS
VL: NFMLTQPHSVSESPGKTVTISCTRSSGSIASNYVQWYQQRPGSSPTTVIYEDNHRPSGVPDRFSGSIDSSSNSASLTISGLKTEDEADYFCQSFDSSNRVFGGGTKLTVL
notes: as for B1
For the molecule B13, in assay [1], the Kd came out at 9.31 nM, the Response is 1.01, the koff is 0.00123 s⁻¹ and the kon stood at 132000 M⁻¹ s⁻¹. Further, in assay [2], the Kd worked out at 6.66 nM, the Response stood at 1.03, the koff was 0.00104 s⁻¹ and the kon turned out to be 156000 M⁻¹ s⁻¹.
